Reference: publication PMC11443169 (Life Science Alliance, 2024)
Ends that are not written are not given here.

Experiments:
[1] = Recovery of Aβ variants for elution from reversed-phase HPLC under different conditions; assay type: physicochemical
Text: Senile plaques, which are one of the key pathological features of Alzheimer’s disease (AD), are composed of amyloid β peptides (Aβs) with a variety of secondary and tertiary structures because of post-translational modifications ([Saido et al, 1995], [1996]). This heterogeneity appears to affect catabolism and aggregation rates, resulting in structural changes in plaques. […] In contrast, transgenic (Tg) mice overexpressing human APP with pathogenic mutations primarily accumulate Aβ1-40 and Aβ1-42 ([Sturchler-Pierrat et al, 1997]; [Kawarabayashi et al, 2001]). […] There is, however, some discrepancy among different reports regarding the quantity of Aβ variants, which vary depending on the methods employed. […] However, the use of a heated (50°C) basic solvent containing betaine and limited proteolysis using lysyl endopeptidase allows full recovery in HPLC and detection by mass spectrometry, respectively.
Supplementary file : Table S1. Recovery of various Aβ variants for elution from reversed-phase HPLC under different conditions. TFA, trifluoroacetic acid; TEA, triethylamine.

Procedure for rat hippocampus: (A, B, C, D, E, F) Variants of ^3H/^14C-Aβx-42 were subjected to in vivo degradation and subsequent analysis as previously described ([Iwata et al, 2000]). Briefly, 0.5 μg Aβx-42 peptide dissolved in phosphate-buffered saline was unilaterally injected into the CA1 sector of the rat hippocampus and subjected to catabolism until the animals were euthanized by decapitation at the indicated time points. There was no contamination of the injection area by plasma or cerebrospinal fluid as immunohistochemically confirmed using anti-rat IgG. After extraction, the products were analyzed by reversed-phase HPLC connected to a flow scintillation monitor. The HPLC profiles in a ^14C mode at time 0 (red), 10 (blue), and 30/60 (black) minutes after the in vivo injection are shown. […] The major peaks at time 0 indicated by the arrows correspond to the intact substrates.
Digitized data of remaining amounts of intact Aβx-42 shown in Fig 1 were plotted, and then exponential approximation curves were drawn using Microsoft Excel. Each analysis of the in vivo catabolic rate of the Aβx-42 variant was carried out by independent experiments with more than five time points.
Male, 8–10-wk-old, Sprague Dawley rats used for in vivo analysis of metabolic rates of radiolabeled Aβx-42 peptides were obtained from Japan SLC. […] They were housed in plastic cages. […]

| Substance | Recovery for elution from reversed phase HPLC ([1]; solvent TEA/betaine (basic), temperature 50℃) [%] | Recovery for elution from reversed phase HPLC ([1]; solvent TFA, temperature 20℃) [%] | Recovery for elution from reversed phase HPLC ([1]; solvent TFA, temperature 50℃) [%] | Half-life (in vivo half-lives of Aβx-42) (rat hippocampus) [min] |
| --- | --- | --- | --- | --- |
| Aβ1-40: amyloid β peptide 1-40 | 100 | 100 | 100 |  |
| Aβ17L-42: Aβ17L-42 (p3 fragment), internally radiolabeled (LVFFAEDVGSNKGAIIGLMVGGVVIA; also: internally radiolabeled, site not given here; UniProt P05067 688-713, looked up, fragment) |  |  |  | 34.69 |
